Assay results taken from publication PMC3567102.

Biological target: T1, wild-type Mtd (major tropism determinant), Mtd-GST fusion protein (Bordetella bronchiseptica bacteriophage), Q775D6
T1 chain: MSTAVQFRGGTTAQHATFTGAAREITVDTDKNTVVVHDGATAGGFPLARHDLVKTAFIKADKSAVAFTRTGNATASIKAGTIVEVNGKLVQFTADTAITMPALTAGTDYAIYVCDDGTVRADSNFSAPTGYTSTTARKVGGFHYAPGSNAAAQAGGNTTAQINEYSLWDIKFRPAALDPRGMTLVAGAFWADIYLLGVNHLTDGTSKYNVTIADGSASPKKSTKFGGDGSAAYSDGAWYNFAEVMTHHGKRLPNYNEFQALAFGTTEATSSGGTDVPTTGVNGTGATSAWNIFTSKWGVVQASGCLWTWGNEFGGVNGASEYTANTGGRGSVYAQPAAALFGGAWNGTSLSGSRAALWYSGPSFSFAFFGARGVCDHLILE
Experiment: SEC; size exclusion chromatography of purified Mtd-GST fusion proteins after dialysis into PBS
Settings: remark: other sources report otherwise

B1: wild-type Mtd (major tropism determinant), Mtd-GST fusion protein, Q775D6 1-381 (natural protein)
chain: MSTAVQFRGGTTAQHATFTGAAREITVDTDKNTVVVHDGATAGGFPLARHDLVKTAFIKADKSAVAFTRTGNATASIKAGTIVEVNGKLVQFTADTAITMPALTAGTDYAIYVCDDGTVRADSNFSAPTGYTSTTARKVGGFHYAPGSNAAAQAGGNTTAQINEYSLWDIKFRPAALDPRGMTLVAGAFWADIYLLGVNHLTDGTSKYNVTIADGSASPKKSTKFGGDGSAAYSDGAWYNFAEVMTHHGKRLPNYNEFQALAFGTTEATSSGGTDVPTTGVNGTGATSAWNIFTSKWGVVQASGCLWTWGNEFGGVNGASEYTANTGGRGSVYAQPAAALFGGAWNGTSLSGSRAALWYSGPSFSFAFFGARGVCDHLILE
For B1, the stoichiometry N was 6.
